This is an account of results in publication PMC8792056 (2022).

B1: DNAJB14-FL-FLAG [human] / DNAJB12-FL-mOrange [human] (parent complex)
chain 1: MEGNRDEAEKCVEIAREALNAGNREKAQRFLQKAEKLYPLPSARALLEIIMKNGSTAGNSPHCRKPSGSGDQSKPNCTKDSTSGSGEGGKGYTKDQVDGVLSINKCKNYYEVLGVTKDAGDEDLKKAYRKLALKFHPDKNHAPGATDAFKKIGNAYAVLSNPEKRKQYDLTGNEEQACNHQNNGRFNFHRGCEADITPEDLFNIFFGGGFPSGSVHSFSNGRAGYSQQHQHRHSGHEREEERGDGGFSVFIQLMPIIVLILVSLLSQLMVSNPPYSLYPRSGTGQTIKMQTENLGVVYYVNKDFKNEYKGMLLQKVEKSVEEDYVTNIRNNCWKERQQKTDMQYAAKVYRDDRLRRKADALSMDNCKELERLTSLYKGG
chain 2: MESNKDEAERCISIALKAIQSNQPDRALRFLEKAQRLYPTPRVRALIESLNQKPQTAGDQPPPTDTTHATHRKAGGTDAPSANGEAGGESTKGYTAEQVAAVKRVKQCKDYYEILGVSRGASDEDLKKAYRRLALKFHPDKNHAPGATEAFKAIGTAYAVLSNPEKRKQYDQFGDDKSQAARHGHGHGDFHRGFEADISPEDLFNMFFGGGFPSSNVHVYSNGRMRYTYQQRQDRRDNQGDGGLGVFVQLMPILILILVSALSQLMVSSPPYSLSPRPSVGHIHRRVTDHLGVVYYVGDTFSEEYTGSSLKTVERNVEDDYIANLRNNCWKEKQQKEGLLYRARYFGDTDMYHRAQKMGTPSCSRLSEVQASLHG

Variants of B1 are the subject of the assay. Put plainly: co-IP (IP: FLAG, WB: mOrange), densitometry with Fiji; HEK293T cells; n = 3 biologically independent samples; parent: 2.7; read off a plot.
As to chain 1 H136Q, the response was ~7.2 [ORANGE]/[FLAG].
